Key:
[1] = target: T1, recombinant soluble human iTCR (Hu-siTCR) (human); assay: SPR (BIAcore)
T1 construct: Bought recombinant soluble heterodimer, coated on nickel (HIS-Select) plates; also called recombinant TCR heterodimer (Precision Antibody); purified TCR heterodimer

[2] = target: T1, recombinant soluble human iTCR …; assay: ELISA using Hu-siTCR
human FcγRI [3] = target: T2, human FcγRI (human, UniProt P12314 16-288, limits assumed); assay: summary of Example 2
[4] = target: T1, recombinant soluble human iTCR …; assay: competition ELISA on plate-bound recombinant TCR heterodimer; competitor biotinylated chimeric 6B11 IgG1; IC50 of test divided by IC50 of reference
FcγRIII = target: T3, FcγRIII (human); assay: in vitro binding experiments, afucosylated against fucosylated IgG1; reference not named
T3 construct: also called Fc-gamma-RIII
T3 sequence (P08637 17-208): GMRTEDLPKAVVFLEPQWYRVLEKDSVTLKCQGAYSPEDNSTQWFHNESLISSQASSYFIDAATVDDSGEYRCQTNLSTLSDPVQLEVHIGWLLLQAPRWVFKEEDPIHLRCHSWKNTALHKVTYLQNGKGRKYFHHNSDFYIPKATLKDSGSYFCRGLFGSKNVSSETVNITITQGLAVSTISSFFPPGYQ

human FcγRI [5] = target: T2, human FcγRI; assay: ELISA
complement component C1q = complement component C1q (human, UniProt P02745 23-245; P02746 28-253; P02747 29-245); assay: ELISA
Sequence of complement component C1q (P02745 23-245 limits assumed, chain 1 of 3): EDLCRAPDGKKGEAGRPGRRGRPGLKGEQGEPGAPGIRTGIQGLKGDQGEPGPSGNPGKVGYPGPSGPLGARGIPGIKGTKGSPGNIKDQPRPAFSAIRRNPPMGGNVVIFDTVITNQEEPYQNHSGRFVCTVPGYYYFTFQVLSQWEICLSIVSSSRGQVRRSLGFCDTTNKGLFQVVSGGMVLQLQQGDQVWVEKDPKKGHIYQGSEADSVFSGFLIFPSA
Sequence of complement component C1q (P02746 28-253 limits assumed, chain 2 of 3): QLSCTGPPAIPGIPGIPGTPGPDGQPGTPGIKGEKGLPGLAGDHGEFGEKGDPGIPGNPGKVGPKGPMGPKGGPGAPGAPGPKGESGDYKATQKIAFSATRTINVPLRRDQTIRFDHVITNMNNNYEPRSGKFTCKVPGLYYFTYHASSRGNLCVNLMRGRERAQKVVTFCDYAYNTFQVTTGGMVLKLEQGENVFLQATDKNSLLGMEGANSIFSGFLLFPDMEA
Sequence of complement component C1q (P02747 29-245 limits assumed, chain 3 of 3): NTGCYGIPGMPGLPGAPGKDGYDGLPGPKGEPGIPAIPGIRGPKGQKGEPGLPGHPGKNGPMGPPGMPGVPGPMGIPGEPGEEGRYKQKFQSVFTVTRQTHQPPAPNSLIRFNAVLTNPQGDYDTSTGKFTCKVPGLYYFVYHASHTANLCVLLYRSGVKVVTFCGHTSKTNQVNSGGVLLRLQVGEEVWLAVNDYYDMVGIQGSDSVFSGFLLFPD

human FcγRI [6] = target: T2, human FcγRI; assay: ELISA / BIAcore, not said which

T2 sequence (P12314 16-288 limits assumed): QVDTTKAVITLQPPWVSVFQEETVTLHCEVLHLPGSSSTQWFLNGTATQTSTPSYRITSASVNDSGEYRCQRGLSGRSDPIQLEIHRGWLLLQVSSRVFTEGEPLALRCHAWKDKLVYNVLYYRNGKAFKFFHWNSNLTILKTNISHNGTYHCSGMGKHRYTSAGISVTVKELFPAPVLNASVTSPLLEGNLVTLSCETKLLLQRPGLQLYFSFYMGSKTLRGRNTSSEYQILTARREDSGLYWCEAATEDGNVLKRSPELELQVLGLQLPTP

B1: NKTT120 (antibody, human IgG1, kappa)
heavy: not shown
light: DIQMTQSPSSLSASVGDRVTITCKASQDVSTAVAWYQQKPGQAPRLLIYWASTRHTGVPSRFSGSGSGTDFTLTISSLQPEDFALYYCQQHYSTPWTFGQGTKLEIKRTVAAPSVFIFPPSDEQLKSGTASVVCLLNNFYPREAKVQWKVDNALQSGNSQESVTEQDSKDSTYSLSSTLTLSKADYEKHKVYACEVTHQGLSSPVTKSFNRGEC
notes: Humanized IgG1 with VH4 and VK4; also called VH 4/VK4; VH 4/Vκ4
For B1, the Kd [1] was about 60 nM, the IC50 [2] was 0.2 µg/mL and the binding result (human FcγRI [3]) was “binds”. The “Relative IC50” value [4] was 0.212 ratio to chimeric 6B11 IgG1.

B2: NKTT219 (antibody, human IgG1)
heavy: not shown
VL: DIVMTQSPSSLSASVGDRVTITCKASQDVSTAVAWYQQKPGQAPRLLIYWASTRHTGVPSRFSGSGSGTDFTLTISSLQPEDFALYYCQQHYSTPWTFGQGTKLEIK
modifications: non-fucosylated (afucosylated) carbohydrate in the Fc portion
notes: also called ADCC-enhanced humanized IgG1
For B2, the “fold improvement of binding” value (FcγRIII) was at most 100 fold.

B3: NKTT103 (6B11 chimeric IgG1 control antibody) (antibody)
heavy: not shown
light: DIVMTQSHKFMSTSVGDRVSITCKASQDVSTAVAWYQQKPGQSPKLLIYWASTRHTGVPDRFTGSGSGTDYTLTISSVQAEDLALYYCQQHYSTPWTFGGGTKLEIKRTVAAPSVFIFPPSDEQLKSGTASVVCLLNNFYPREAKVQWKVDNALQSGNSQESVTEQDSKDSTYSLSSTLTLSKADYEKHKVYACEVTHQGLSSPVTKSFNRGEC
notes: Murine 6B11 V regions on human IgG1; also called chimeric 6B11 IgG1; chimeric 6B11 mAb
B3 was tested, and the binding result (human FcγRI [5]) was “binds”, the binding result (complement component C1q) was “binds” and the IC50 [2] was 1 µg/mL.

B4: NKTT320 (antibody, human IgG4 S228P, kappa)
heavy: not shown
light: B1 light
notes: also called modified IgG4 anti-iNKT mAb
B4: no binding (human FcγRI [6]).
